Key:
She2p;She3p = She2p;She3p (Saccharomyces cerevisiae;Saccharomyces …, UniProt P36068;P38272 1-246;1-425, |); assay: EMSA; She3p constant 25 nM, She2p varied; EMSA: 20 mM HEPES pH 7.8, 200 mM NaCl, 2 mM MgCl2, 2 mM DTT, 4% glycerol, 30 or 100 ug/ml yeast tRNA, 5 nM RNA, 20 C; filter binding: 20 mM HEPES pH 7.4-7.5 (7.9 with She3p), 150 mM NaCl, 2 mM MgCl2, 2 mM DTT, 30 ug/ml yeast tRNA, 0.5 nM RNA; pull-down: HNMD buffer, 4 C; conditions: protein: recombinant;recombinant; tags: GST tag (PreScission-cleaved);C-terminal His6; chain copies: 4;2; label: 32P; stem-loop
She3p (334-425) = biological target: T1, She3p (334-425) (Saccharomyces cerevisiae, UniProt P38272 334-425); assay: EMSA; +++; EMSA: 20 mM HEPES pH 7.8, 200 mM NaCl, 2 mM MgCl2, 2 mM DTT, 4% glycerol, 30 or 100 ug/ml yeast tRNA, 5 nM RNA, 20 C; filter binding: 20 mM HEPES pH 7.4-7.5 (7.9 with She3p), 150 mM NaCl, 2 mM MgCl2, 2 mM DTT, 30 ug/ml yeast tRNA, 0.5 nM RNA; pull-down: HNMD buffer, 4 C; conditions: protein: recombinant; tags: MBP and His6 (EMSA); His6 (SEC, cross-linking); label: 32P; stem-loop
T1 sequence: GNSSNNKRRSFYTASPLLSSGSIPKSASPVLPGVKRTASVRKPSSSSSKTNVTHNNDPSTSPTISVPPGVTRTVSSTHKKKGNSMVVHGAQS

She3p (S348E) = biological target: T2, She3p (S348E) (Saccharomyces cerevisiae, UniProt P38272 1-425, S348E); assay: as above; conditions: protein: recombinant; tags: C-terminal His6; label: 32P; stem-loop
T2 sequence: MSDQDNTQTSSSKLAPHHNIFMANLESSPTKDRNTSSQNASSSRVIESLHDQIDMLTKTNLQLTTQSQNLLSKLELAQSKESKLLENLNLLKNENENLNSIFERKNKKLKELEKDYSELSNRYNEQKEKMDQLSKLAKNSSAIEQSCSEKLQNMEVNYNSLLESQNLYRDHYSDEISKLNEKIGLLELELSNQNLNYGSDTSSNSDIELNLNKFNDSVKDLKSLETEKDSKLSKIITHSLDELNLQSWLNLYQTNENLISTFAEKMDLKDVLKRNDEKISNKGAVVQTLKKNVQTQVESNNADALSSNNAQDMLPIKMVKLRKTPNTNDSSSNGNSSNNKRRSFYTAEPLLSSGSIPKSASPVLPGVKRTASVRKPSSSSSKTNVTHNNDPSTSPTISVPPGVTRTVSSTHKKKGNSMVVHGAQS

[1] = biological target: She2p (T191A D192A);She3p (Saccharomyces cerevisiae;Saccharomyces …, UniProt P36068;P38272 1-246;1-425, T191A;D192A|); assay: EMSA; synergism +++; EMSA: 20 mM HEPES pH 7.8, 200 mM NaCl, 2 mM MgCl2, 2 mM DTT, 4% glycerol, 30 or 100 ug/ml yeast tRNA, 5 nM RNA, 20 C; filter binding: 20 mM HEPES pH 7.4-7.5 (7.9 with She3p), 150 mM NaCl, 2 mM MgCl2, 2 mM DTT, 30 ug/ml yeast tRNA, 0.5 nM RNA; pull-down: HNMD buffer, 4 C; conditions: protein: recombinant;recombinant; tags: GST tag (PreScission-cleaved);C-terminal His6; chain copies: 4;2; label: 32P; stem-loop
[2] = biological target: She2p (E183A D184A G185A);She3p (Saccharomyces cerevisiae;Saccharomyces …, UniProt P36068;P38272 1-246;1-425, E183A;D184A;G185A|); assay: as above; conditions: protein: recombinant;recombinant; tags: GST tag (PreScission-cleaved);C-terminal His6; chain copies: 4;2; label: 32P; stem-loop
[3] = biological target: She2p;She3p (S343E S361E) (Saccharomyces cerevisiae;Saccharomyces …, UniProt P36068;P38272 1-246;1-425, |S343E;S361E); assay: as above; conditions: protein: recombinant;recombinant; tags: GST tag (PreScission-cleaved);C-terminal His6; chain copies: 4;2; label: 32P; stem-loop
She2p;She3p (R341E) = She2p;She3p (R341E) (Saccharomyces cerevisiae;Saccharomyces …, UniProt P36068;P38272 1-246;1-425, |R341E); assay: as above; conditions: protein: recombinant;recombinant; tags: GST tag (PreScission-cleaved);C-terminal His6; chain copies: 4;2; label: 32P; stem-loop
She2p;She3p (R341E), sequence (P36068 whole entry, stated change not applied, one chain of several): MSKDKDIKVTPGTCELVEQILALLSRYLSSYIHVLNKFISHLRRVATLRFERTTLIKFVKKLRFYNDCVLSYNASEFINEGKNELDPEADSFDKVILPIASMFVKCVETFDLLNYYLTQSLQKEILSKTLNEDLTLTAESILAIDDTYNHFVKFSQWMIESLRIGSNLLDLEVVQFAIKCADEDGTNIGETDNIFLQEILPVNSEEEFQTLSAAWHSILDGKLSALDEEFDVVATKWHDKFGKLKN

She2p;She3p (S343E S361E), sequence (P36068 whole entry, stated change not applied, one chain of several): as above
She2p;She3p, sequence (P36068 whole entry, one chain of several): as the sequence (P36068 whole entry, stated change not applied, one chain of several) above
She2p (T191A D192A);She3p, sequence (P36068 whole entry T191A/D192A, one chain of several): as the sequence (P36068 whole entry, stated change not applied, one chain of several) above, with T191A, D192A counted along it
She2p (E183A D184A G185A);She3p, sequence (P36068 whole entry E183A/D184A/G185A, one chain of several): as the sequence (P36068 whole entry, stated change not applied, one chain of several) above, with E183A, D184A, G185A counted along it

B1: ASH1 E3-118 (structured_RNA)
RNA: GAGACAGUAGAGAAUUGAUACAUGGAUAACUGAAUCUCUUUCAACUAAUAAGAGACAUUAUCACGAAACAAUUGUACAUUUCUCUCCUUGUCUGUGCUAAAUAAACUACAAAUAAAAA
- Kd (She2p;She3p): ~25 nM
- binding result (She3p (334-425)): binds
- binding result (She3p (S348E)): binds
- binding result [1]: binds
- binding result [2]: binds
- binding result [3]: binds
- binding result (She2p;She3p (R341E)): binds
